Measured values published in paper PMC10292028.
Substitutions are numbered along the chain they refer to. Numbers in names are those of the source.

B1: 6DMATSmo (Micromonospora olivasterospora) (protein)
chain: MAGLSVSDHLDGQLARLCEVAGADPVEPRNLLAGLLGPVGPRPLYEPPAWPSGVSDDHTPVEFSIAFNEAEPPTLRILGETLGSPPGPLANLSATRGFLDAQARRAGLSTSRLDSVRDLFATDDPQGDFAMWCSLVFRSSRRPEFKVYLNPEVKGVERSPALVSEALHRLGLGASYRALLDHGVRPGELGRGDRLTFFAVDLHDGPQARVKLYLTHHEAEVWDVTRAASVVDGVDVAEIEEFCVVAGGGTRRFDGRPLVGSYTFTEGADRPVGYSIYVPIRSYVTDDQEARDRVAALLVRYGFDTDGLDRAIAAVTPRPLRDGVGLIAHVSLRLGAPRPGVTVYLSAEAYRVSPPRPRRMPAGRDVSPAPVGRTRP
B2: 6DMATSmo (Micromonospora olivasterospora; H329Y) (protein)
chain: B1 chain with H329Y
B3: 6DMATSmo (Micromonospora olivasterospora; H329Y/Y277H) (protein)
chain: B1 chain with Y277H, H329Y
B4: 6DMATSmo (Micromonospora olivasterospora; Y277H) (protein)
chain: B1 chain with Y277H
B5: PriB (Streptomyces sp. RM-5-8) (protein)
chain: MGGPMSGFHSGEALLGDLATGQLTRLCEVAGLTEADTAAYTGVLIESLGTSAGRPLSLPPPSRTFLSDDHTPVEFSLAFLPGRAPHLRVLVEPGCSSGDDLAENGRAGLRAVHTMADRWGFSTEQLDRLEDLFFPSSPEGPLALWCALELRSGGVPGVKVYLNPAANGADRAAETVREALARLGHLQAFDALPRADGFPFLALDLGDWDAPRVKIYLKHLGMSAADAGSLPRMSPAPSREQLEEFFRTAGDLPAPGDPGPTEDTGRLAGRPALTCHSFTETATGRPSGYTLHVPVRDYVRHDGEARDRAVAVLREHDMDSAALDRALAAVSPRPLSDGVGLIAYLALVHQRGRPTRVTVYVSSEAYEVRPPRETVPTRDRARARL

Legend:
[1] = substrate: N[C@@H](Cc1c[nH]c2ccccc12)C(=O)O; experiment: HPLC end-point assay, Michaelis-Menten fit; format: biochemical, Micromonospora olivasterospora; conditions: 2 mM DMAPP, 50 mM Tris pH 8.0, 37 °C
[2] = substrate: N[C@@H](Cc1c[nH]c2ccccc12)C(=O)O; experiment: HPLC end-point assay, Michaelis-Menten fit; format: biochemical, Streptomyces sp. RM-5-8; conditions: 2 mM DMAPP, 50 mM Tris pH 8.0, 37 °C

Protein | Km [1] | kcat [1] [s⁻¹] | kcat/Km [1] [M⁻¹ s⁻¹] | Km [2] | kcat [2] [s⁻¹] | kcat/Km [2] [M⁻¹ s⁻¹]
B1 | (33.1 ± 2.5) × 10^−2 mM | 0.0917 ± 0.00167 | 277 |  |  | 
B2 | (26.7 ± 1.6) × 10^−2 mM | 0.000783 ± 1.17e-05 | 2.93 |  |  | 
B3 | 1000 ± 100 µM | 0.00182 ± 3.33e-05 | 1.82 |  |  | 
B4 | (38.2 ± 0.1) × 10^−2 mM | 0.00108 ± 3.33e-05 | 2.83 |  |  | 
B5 |  |  |  | (42.9 ± 6.9) × 10^−2 mM | 0.33 ± 0.0133 | 770
